We go through nine molecules from patent US20210163599A1 (AVACTA LIFE SCIENCES, published 2021).

The target in one test is T1, huPD-L1 on H441 cells (human, UniProt Q9NZQ7 19-290).
T1 construct: whole, on cells; also called H441 cells (expressing huPD-L1)
Description: flow cytometry, % of positive H441 cells (human lung adenocarcinoma cells expressing PD-L1). As for the experimental part: The binding affinity of AVA04 Affimer polypeptides was determined using Flow cytometry on Human lung adenocarcinoma cell line. […] Cells were collected by centrifugation at 300 rpm for 5 min. The cells were resuspended in PBS and 50000 cells per wells were dispatched in a round bottom 96 well plate. Cells were washed with PBS. Affimer and controls were diluted in staining buffer (R&D) in duplicate and added on cells for staining for approximately 60 min at 4±1° c. Cells were washed and the secondary anti-Cystatin A (R&D) was diluted 1:15 in staining buffer (R&D) and added on cells for staining for approximately 40 min at 4±1° c. Cells were washed and the detection antibody A488 anti-Goat (Biolegend) was diluted 1:100 in staining buffer (R&D) and added on cells for staining for approximately 30 min at 4±1° c. Finally, cells were washed, live and dead cells were stained using L/D stain Zombie Aqua (Biolegend) diluted in staining buffer for 10 min at 4±1° c. Cells were washed and fixation buffer (R&D) was added to each well for 10 min at 4±1° C. then PBS with EDTA (Lonza) was added prior reading the plate on the flow cytometer (Guava 12 HT, Millipore). Dead cells were excluded and the fluorescent Green channel (488 nm/525/30) was acquired. Results were analyzed using Incyte and data were plotted using graphpad.

Test [1] has as its target T2, huPD-L1-Fc (R&D Systems) (human, UniProt Q9NZQ7 19-239).
T2 construct: Bought from R&D Systems; also called hPDL1-Fc; human PD-L1 Fc antigen
Description: Biacore T200, PD-L1-Fc immobilised on CM5, Affimer as analyte, 1:1 Langmuir fit. Here is the method:
The concentration titration of Affimer monomer was run as analyte with an association time of 150 seconds, followed by a dissociation time of 300 seconds at a flow rate of 30 μl/min. […] The data blank was subtracted and fit to a 1:1 Langmuir binding model (BIAcore evaluation software; GE) to calculate an apparent KD value.
Background: Surface plasmon resonance follows binding to a sensor surface in real time, without labels.

The target in test [2] is T2, huPD-L1-Fc (R&D Systems). Description: competition ELISA: hu PD-1-Fc coated, binder preincubated with 30 ng/ml huPD-L1-Fc; blocked ligand PD-1. As for the experimental part:
Plates were washed 2 times with 150 μl of washing buffer (PBS, Tween 20 0.1%) with a plate washer and saturated with Casein 5% (Sigma) in PBS for 90 minutes at room temperature (25±1° C.) Plates were washed as described previously. […] The reaction was stopped using an acidic solution and plates were read at 450-630 nm. The IC 50 was then calculated using the interpolated non-linear four-parameters standard curve.

The target of test [3] is T2, huPD-L1-Fc (R&D Systems). In words: Biacore.
Test [4] concerns the target T2, huPD-L1-Fc (R&D Systems). Description: Biacore (target not named on the sheet; PD-L1 by the example).

T1 sequence (Q9NZQ7 19-290): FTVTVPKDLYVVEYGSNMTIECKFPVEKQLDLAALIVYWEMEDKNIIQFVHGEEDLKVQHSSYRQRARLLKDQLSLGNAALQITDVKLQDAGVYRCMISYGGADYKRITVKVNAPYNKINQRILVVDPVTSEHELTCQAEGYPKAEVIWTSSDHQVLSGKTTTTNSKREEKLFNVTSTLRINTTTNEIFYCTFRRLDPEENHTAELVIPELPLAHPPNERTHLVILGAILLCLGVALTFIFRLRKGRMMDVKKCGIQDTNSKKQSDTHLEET
T2 sequence (Q9NZQ7 19-239 limits assumed): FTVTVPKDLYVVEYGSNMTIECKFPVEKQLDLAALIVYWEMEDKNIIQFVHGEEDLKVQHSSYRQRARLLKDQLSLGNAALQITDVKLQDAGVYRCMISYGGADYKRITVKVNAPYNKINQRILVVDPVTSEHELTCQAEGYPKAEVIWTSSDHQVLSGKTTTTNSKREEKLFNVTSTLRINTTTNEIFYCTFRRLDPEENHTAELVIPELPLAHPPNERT

B1: AVA04-228 (designed binder)
Affimer polypeptide: MIPRGLSEAKPATPEIQEIVDKVKPQLEEKTNETYGKLEAVQYKTQVLAKPYGPRDWDSTNYYIKVRAGDNKYMHLKVFNGPEPQLDTSPIADRVLTGYQVDKNKDDELTGFAAAGHHHHHH
notes: also called AVA04 clone 228
For orientation: EC50 means the concentration that produces a half-maximal response. A lower EC50 goes with higher potency in that assay. B1: it took 0.18 nM to reach a half-maximal effect in the test with huPD-L1 on H441 cells (EC50).

B2: AVA04-261 (designed binder)
chain: MIPRGLSEAKPATPEIQEIVDKVKPQLEEKTNETYGKLEAVQYKTQVLAHAYGPRDWDSTNYYIKVRAGDNKYMHLKVFNGPPADHVLEEAADRVLTGYQVDKNKDDELTGFAAAGHHHHHH
Take B2: the EC50 with huPD-L1 on H441 cells is 0.043 nM.

B3: AVA04-231 (designed binder)
Affimer polypeptide: MIPRGLSEAKPATPEIQEIVDKVKPQLEEKTNETYGKLEAVQYKTQVLANTWFPESFWSTNYYIKVRAGDNKYMHLKVFNGPDDNQERQEHADRVLTGYQVDKNKDDELTGFAAAGHHHHHH
notes: also called AVA04 clone 231
Take B3: a half-maximal response with huPD-L1 on H441 cells (EC50) required 9.51 nM.

B4: AVA04-211 (designed binder)
Affimer polypeptide: MIPRGLSEAKPATPEIQEIVDKVKPQLEEKTNETYGKLEAVQYKTQVLAKDWGPSNWWSTNYYIKVRAGDNKYMHLKVFNGPVDDKTLSKDADRVLTGYQVDKNKDDELTGFAAAGHHHHHH
notes: also called AVA04 clone 211
In turn, B4 came in with an EC50 in the test with huPD-L1 on H441 cells of 0.21 nM.

B5: AVA04-269 (designed binder)
Affimer polypeptide: MIPRGLSEAKPATPEIQEIVDKVKPQLEEKTNETYGKLEAVQYKTQVLAKEYGPEEWWSTNYYIKVRAGDNKYMHLKVFNGPGDYEQVLIHADRVLTGYQVDKNKDDELTGFAAAGHHHHHH
notes: also called AVA04 clone 269
For the molecule B5, in the test with huPD-L1 on H441 cells, the EC50 was determined as 0.01 nM.

B6: AVA04-227 (designed binder)
Affimer polypeptide: MIPRGLSEAKPATPEIQEIVDKVKPQLEEKTNETYGKLEAVQYKTQVLAKDHGPIAWWSTNYYIKVRAGDNKYMHLKVFNGPEDTNTDGALADRVLTGYQVDKNKDDELTGFAAAGHHHHHH
notes: also called AVA04 clone 227
Regarding B6, in the test with huPD-L1 on H441 cells, the EC50 was 0.04 nM.

B7: AVA04-141 Monomer His (designed binder)
Affimer polypeptide: MIPRGLSEAKPATPEIQEIVDKVKPQLEEKTNETYGKLEAVQYKTQVLAAAHFPEHFWSTNYYIKVRAGDNKYMHLKVFNGPQPADMSAEFADRVLTGYQVDKNKDDELTGFAAAGHHHHHH
notes: also called Affimer monomer; AVA04 clone 141
As a reminder, the Kd is the free concentration of one partner at which half of the binding sites on the other are occupied at equilibrium, for simple one-to-one binding. Low readings indicate tighter binding, high ones weaker binding. By koff is commonly meant a measure of how fast the partners let go of each other. Read a high koff as a short-lived complex. One may read the kon as a measure of how fast the partners come together. Higher therefore signals fast association. As a reminder, the IC50 is the midpoint of a concentration-inhibition curve. The low end stands for greater potency, the high end for weaker potency. For the molecule B7, in the test with huPD-L1-Fc (R&D Systems) [1], the affinity, expressed as Kd, was 8.9 nM; the koff worked out at 0.0251 s⁻¹; the kon came to 2.81e+06 M⁻¹ s⁻¹. Also, the IC50 with huPD-L1-Fc (R&D Systems) [2] was determined as 2.5 nM.

B8: AVA04-251 (designed binder)
chain: MIPRGLSEAKPATPEIQEIVDKVKPQLEEKTNETYGKLEAVQYKTQVLAREGRQDWVLSTNYYIKVRAGDNKYMHLKVFNGPWVPFPHQQLADRVLTGYQVDKNKDDELTGFAAAGHHHHHH
B8 showed a concentration for a half-maximal effect (EC50) in the test with huPD-L1 on H441 cells of 2.06 nM.

B9: AVA04-261 BN (designed binder)
chain: MIPRGLSEAKPATPEIQEIVDKVKPQLEEKTNETYGKLEAVQYKTQVLAHAYGPRDWDSTNYYIKVRAGDNKYMHLKVFNGPPADHVLEEAADRVLTGYQVDKNKDDELTGFGGGGSGGGGSGGGGSGGGGSEPKSCDKTHTCPPCPHHHHHH
notes: Affimer - (G4S)4 - human IgG1 hinge - His; dimerises through the hinge cysteines
On to B9, for which the Kd in the test with huPD-L1-Fc (R&D Systems) [3] is 0.0599 nM. In the test with huPD-L1-Fc (R&D Systems) [4], this molecule displayed a koff of 0.000156 s⁻¹ and a kon of 2.61e+06 M⁻¹ s⁻¹.
